From patent publication US20170165339A1 (IMMATICS BIOTECHNOLOGIES, published 2017) come the findings set out here.

B1: KLLDPQEFTL (SEQ ID NO: 59) (peptide)
peptide: KLLDPQEFTL
B2: ALNPELVQA (SEQ ID NO: 62) (peptide)
peptide: ALNPELVQA
B3: ALFAPLVHL (SEQ ID NO: 60) (peptide)
peptide: ALFAPLVHL
B4: AVIKFLELL (SEQ ID NO: 75) (peptide)
peptide: AVIKFLELL
B5: GQASYFYVA (SEQ ID NO: 83) (peptide)
peptide: GQASYFYVA
B6: LLLGDSALYL (SEQ ID NO: 70) (peptide)
peptide: LLLGDSALYL
B7: YLVSEIFKA (SEQ ID NO: 103) (peptide)
peptide: YLVSEIFKA
B8: FTIFRTISV (SEQ ID NO: 121) (peptide)
peptide: FTIFRTISV
B9: ALISWQPPRA (SEQ ID NO: 104) (peptide)
peptide: ALISWQPPRA
B10: AIVDLIHDI (SEQ ID NO: 111) (peptide)
peptide: AIVDLIHDI
B11: FIFDEAEKL (SEQ ID NO: 82) (peptide)
peptide: FIFDEAEKL
B12: SLDPSVTHL (SEQ ID NO: 109) (peptide)
peptide: SLDPSVTHL
B13: LLVSHLYLV (SEQ ID NO: 96) (peptide)
peptide: LLVSHLYLV
B14: SLSNRLYYL (SEQ ID NO: 68) (peptide)
peptide: SLSNRLYYL
B15: GLLGSLFFL (SEQ ID NO: 95) (peptide)
peptide: GLLGSLFFL
B16: TVFTDHMLTV (SEQ ID NO: 57) (peptide)
peptide: TVFTDHMLTV
B17: TLIDEQDIPLV (SEQ ID NO: 77) (peptide)
peptide: TLIDEQDIPLV
B18: KMPDVELFV (SEQ ID NO: 117) (peptide)
peptide: KMPDVELFV
B19: ALLGTKILL (SEQ ID NO: 105) (peptide)
peptide: ALLGTKILL
B20: TVVTRLDEI (SEQ ID NO: 78) (peptide)
peptide: TVVTRLDEI
B21: QLWQFLVTL (SEQ ID NO: 118) (peptide)
peptide: QLWQFLVTL
B22: SVVPDVRSV (SEQ ID NO: 65) (peptide)
peptide: SVVPDVRSV
B23: VLLDIQEVFQI (SEQ ID NO: 102) (peptide)
peptide: VLLDIQEVFQI
B24: ALCPRIHEV (SEQ ID NO: 84) (peptide)
peptide: ALCPRIHEV
B25: KLYEADFVL (SEQ ID NO: 80) (peptide)
peptide: KLYEADFVL
B26: VLHSKFWVV (SEQ ID NO: 71) (peptide)
peptide: VLHSKFWVV
B27: ALADFMLSL (SEQ ID NO: 101) (peptide)
peptide: ALADFMLSL
B28: VTFKEYVTV (SEQ ID NO: 79) (peptide)
peptide: VTFKEYVTV
B29: QLAPVFQRV (SEQ ID NO: 89) (peptide)
peptide: QLAPVFQRV
B30: ALLGMIIVGV (SEQ ID NO: 100) (peptide)
peptide: ALLGMIIVGV
B31: NALDKVLSV (SEQ ID NO: 81) (peptide)
peptide: NALDKVLSV
B32: AVGPVHNSV (SEQ ID NO: 76) (peptide)
peptide: AVGPVHNSV
B33: SVDSHFQEV (SEQ ID NO: 86) (peptide)
peptide: SVDSHFQEV
B34: FLQDLEQRL (SEQ ID NO: 90) (peptide)
peptide: FLQDLEQRL
B35: FLHDEKEGIYI (SEQ ID NO: 56) (peptide)
peptide: FLHDEKEGIYI
B36: QLIQTLHAV (SEQ ID NO: 114) (peptide)
peptide: QLIQTLHAV
B37: KLIFSVEAV (SEQ ID NO: 66) (peptide)
peptide: KLIFSVEAV
B38: VLDPALPALV (SEQ ID NO: 123) (peptide)
peptide: VLDPALPALV
B39: GVVDPVHGV (SEQ ID NO: 122) (peptide)
peptide: GVVDPVHGV
B40: SLADYEHFV (SEQ ID NO: 125) (peptide)
peptide: SLADYEHFV
B41: LLVPTSGIYFV (SEQ ID NO: 107) (peptide)
peptide: LLVPTSGIYFV
B42: QMFQYFITV (SEQ ID NO: 126) (peptide)
peptide: QMFQYFITV
B43: YLLPLLPAL (SEQ ID NO: 58) (peptide)
peptide: YLLPLLPAL
B44: FLTAINYLL (SEQ ID NO: 72) (peptide)
peptide: FLTAINYLL
B45: AQADHLPQL (SEQ ID NO: 88) (peptide)
peptide: AQADHLPQL
B46: FINDSIVYL (SEQ ID NO: 106) (peptide)
peptide: FINDSIVYL
B47: SQIPAQPSV (SEQ ID NO: 63) (peptide)
peptide: SQIPAQPSV
B48: GLLFSLRSV (SEQ ID NO: 92) (peptide)
peptide: GLLFSLRSV
B49: FLLGVSKEV (SEQ ID NO: 110) (peptide)
peptide: FLLGVSKEV
B50: SLDPDTLPAV (SEQ ID NO: 115) (peptide)
peptide: SLDPDTLPAV
B51: YTLREVDTV (SEQ ID NO: 73) (peptide)
peptide: YTLREVDTV
B52: TLLQRLTEV (SEQ ID NO: 67) (peptide)
peptide: TLLQRLTEV
B53: FLAVGLVDV (SEQ ID NO: 69) (peptide)
peptide: FLAVGLVDV
B54: AIVKEIVNI (SEQ ID NO: 61) (peptide)
peptide: AIVKEIVNI
B55: TQSPATLSV (SEQ ID NO: 128) (peptide)
peptide: TQSPATLSV
B56: VLNDILVRA (SEQ ID NO: 85) (peptide)
peptide: VLNDILVRA
B57: FLERGLESA (SEQ ID NO: 113) (peptide)
peptide: FLERGLESA
B58: KLDGNELDL (SEQ ID NO: 127) (peptide)
peptide: KLDGNELDL
B59: KVMATIEKV (SEQ ID NO: 124) (peptide)
peptide: KVMATIEKV
B60: TIYKDFVYI (SEQ ID NO: 87) (peptide)
peptide: TIYKDFVYI
B61: YLLQSVNQLLL (SEQ ID NO: 99) (peptide)
peptide: YLLQSVNQLLL
B62: LLLPAVPVGA (SEQ ID NO: 94) (peptide)
peptide: LLLPAVPVGA
B63: ILLKNLVTI (SEQ ID NO: 108) (peptide)
peptide: ILLKNLVTI
B64: VTPVTVSAV (SEQ ID NO: 120) (peptide)
peptide: VTPVTVSAV
B65: TLFGYSVVL (SEQ ID NO: 74) (peptide)
peptide: TLFGYSVVL
B66: FIIQGLRSVGA (SEQ ID NO: 119) (peptide)
peptide: FIIQGLRSVGA
B67: SLFPDSLIV (SEQ ID NO: 64) (peptide)
peptide: SLFPDSLIV
B68: RLFPDFFTRVAL (SEQ ID NO: 98) (peptide)
peptide: RLFPDFFTRVAL
B69: SLGKFTFDV (SEQ ID NO: 112) (peptide)
peptide: SLGKFTFDV

In this assay the target is HLA-A*02 (human). The experiment in a line: UV peptide-exchange ELISA, yield grade.
As for B1, the peptide exchange yield is 50 to 75%.
To B2 belongs 20 to 49%; to B3, 50 to 75%.
To B4 belongs 50 to 75%; to B5, 20 to 49%.
Under B6 stands 50 to 75%.
On to B7, for which the peptide exchange yield lay within 50 to 75%.
For B8, the peptide exchange yield lay in the range of 50 to 75%.
To B9 belongs 50 to 75%; to B10, 20 to 49%; to B11, below 20%.
Under B12 stands 20 to 49%; under B13, 20 to 49%.
Under B14 stands 50 to 75%; under B15, at least 75%.
Consider B16, for which the peptide exchange yield was 20 to 49%.
B17 yielded a peptide exchange yield of 50 to 75%.
The molecule B18 registered a peptide exchange yield of 50 to 75%.
Under B19 stands 50 to 75%.
To B20 belongs 20 to 49%; to B21, 50 to 75%.
To B22 belongs 20 to 49%; to B23, 50 to 75%.
In the case of B24, the peptide exchange yield is at least 75%.
Under B25 stands 20 to 49%; under B26, 50 to 75%; under B27, 50 to 75%.
To B28 belongs 20 to 49%.
With B29, the peptide exchange yield fell in the range of 20 to 49%.
To B30 belongs below 20%; to B31, 50 to 75%.
B32 displayed a peptide exchange yield of 20 to 49%.
Turning to B33, the peptide exchange yield is 20 to 49%.
To B34 belongs 50 to 75%.
Molecule B35 showed a peptide exchange yield of 50 to 75%.
Under B36 stands 50 to 75%.
Under B37 stands 50 to 75%; under B38, 20 to 49%; under B39, 20 to 49%.
Under B40 stands at least 75%; under B41, 50 to 75%; under B42, at least 75%.
B43 registered a peptide exchange yield of 50 to 75%.
Under B44 stands 50 to 75%.
For B45, the peptide exchange yield lay in the range of 20 to 49%.
To B46 belongs 50 to 75%.
Under B47 stands 20 to 49%; under B48, at least 75%; under B49, 50 to 75%.
Molecule B50 displayed a peptide exchange yield of 20 to 49%.
On to B51, for which the peptide exchange yield lay in the range of 20 to 49%.
Under B52 stands 50 to 75%; under B53, 50 to 75%; under B54, 20 to 49%.
B55 returned a peptide exchange yield of 20 to 49%.
As for B56, the peptide exchange yield lay within 50 to 75%.
B57 showed a peptide exchange yield of 20 to 49%.
Under B58 stands 50 to 75%; under B59, 20 to 49%; under B60, 20 to 49%.
Under B61 stands 20 to 49%; under B62, 50 to 75%; under B63, 20 to 49%.
To B64 belongs below 20%; to B65, 50 to 75%.
In turn, B66 had a peptide exchange yield of 50 to 75%.
Under B67 stands 20 to 49%; under B68, 20 to 49%.
Regarding B69, the peptide exchange yield was at least 75%.
